Assay results as given in article PMC10302723, “Differential regulation of Shigella Spa47 ATPase activity by a native C-terminal product of Spa33” (Frontiers in Cellular and Infection Microbiology, 2023).

B1: Spa33C containing an N-terminal 6 x histidine tag (domain or fragment)
chain: MNDNNEAKINLSESNGESEHTEVSLALFNYDDINVKVDFILLEKNMTINELKMYVENELFKFPDDIVKHVNIKVNGSLVGHGELVSIEDGYGIEISSWMVKE
notes: Spa33, Shigella flexneri 2457T; Homodimer by SV-AUC (27 ± 3 kDa; dimer with His tag = 27.5 kDa); also called recombinant Spa33C; homo-dimeric Spa33C; source: E. coli, purified (IMAC, SEC); not shown: His6, N-terminal, kept
B2: EGFP-Spa33C fluorescent protein chimera with an N-terminal 6 x histidine tag (domain or fragment)
chain: B1 chain
notes: Spa33, Shigella flexneri 2457T; EGFP is the fluorescent probe of the polarisation assay; Oligomer state of the chimera was not measured (Spa33C with His tag is a homodimer); also called fluorescent Spa33C construct; source: E. coli (pET15b), purified (IMAC, SEC); not shown: EGFP, N-terminal, kept

Assays:
[1] = molecular target: the molecule itself; experiment: AUC; sedimentation velocity of purified His-tagged Spa33C; a single dominant species of 27 ± 3 kDa; monomer to dimer
[2] = molecular target: T1, monomeric Spa47 (SEC-isolated) (Shigella, UniProt P0A1C1 1-430); experiment: fluorescence polarisation; EGFP-Spa33C (or EGFP as control) held at 100 nM, Spa47 monomer or oligomer titrated 0-1.5 μM (monomer units); single site saturation binding model; concentration at half-maximum change in polarisation; conditions: both partners purified
T1 construct: Spa47, Shigella T3SS ATPase; Same construct as m5 and m8; also called Spa47 monomer; monomeric Spa47 isolate; source: E. coli, purified (chitin column with on-column intein cleavage, anion exchange, SEC isolation of the monomer)

[3] = molecular target: T2, oligomeric Spa47 (SEC-isolated homo-oligomer) (Shigella, UniProt P0A1C1 1-430); experiment: as above; conditions: both partners purified
T2 construct: Spa47, Shigella T3SS ATPase; Same construct as m5 and m7; also called Spa47 oligomer; homo-oligomeric Spa47; source: E. coli, purified (chitin column with on-column intein cleavage, anion exchange, SEC isolation of the oligomer)

Binder	stoichiometry N [1]	Kd [2] [nM]	Kd [3] [nM]
B1	2	–	–
B2	–	50 ± 7	80 ± 10
